Assay results taken from patent publication US20120316113A1, “FGF BASED FIBRIN BINDING PEPTIDES” (Baxter Healthcare S.A., priority 2011, published 2012).
“Also recorded” adds a separate entry of the source.

Tests used:
[1] = test system: mouse myoblast cell line (C2C12); assay: Biological activity: viability (MTT) assay of mouse myoblast C2C12 cells; assay type: cell-based; settings: for proliferative activity / cell growth effect: 48 hours, DMEM+1% FCS, MTT
Protocol: A moose myoblast cell line (C2C12; ECACC (Sigma-Aldrich, Vienna)) was grown in Dulbecco's Modified Eagle Medium (DMEM) with 10% fetal calf serum (FCS). At 50-60% confluence cells were trypsinized and transferred to a 24-well plate (1×10^4/well).
Following a 48-hour-culture period at 37° C., cells were washed with DMEM only and then covered with medium (DMEM+1% FCS) containing various concentrations of hFGF-2 or hFGF-2 peptides. After 48 hours number of viable cells was determined by adding 3-(4,5-dimethylthiazol-2-yl)-2,5-diphenyltetrazolium bromide (MTT, Sigma-Aldrich, Vienna) as previously described {M05}.

[2] = biological target: T1, fibrinogen (Homo sapiens, UniProt P02671+P02675+P02679); assay: Fibrinogen binding assay by ELISA; settings: plate coated with 1 mg/ml fibrinogen, various concentrations, anti-His6-peroxidase detection
T1 sequence (P02671 20-629 limits assumed): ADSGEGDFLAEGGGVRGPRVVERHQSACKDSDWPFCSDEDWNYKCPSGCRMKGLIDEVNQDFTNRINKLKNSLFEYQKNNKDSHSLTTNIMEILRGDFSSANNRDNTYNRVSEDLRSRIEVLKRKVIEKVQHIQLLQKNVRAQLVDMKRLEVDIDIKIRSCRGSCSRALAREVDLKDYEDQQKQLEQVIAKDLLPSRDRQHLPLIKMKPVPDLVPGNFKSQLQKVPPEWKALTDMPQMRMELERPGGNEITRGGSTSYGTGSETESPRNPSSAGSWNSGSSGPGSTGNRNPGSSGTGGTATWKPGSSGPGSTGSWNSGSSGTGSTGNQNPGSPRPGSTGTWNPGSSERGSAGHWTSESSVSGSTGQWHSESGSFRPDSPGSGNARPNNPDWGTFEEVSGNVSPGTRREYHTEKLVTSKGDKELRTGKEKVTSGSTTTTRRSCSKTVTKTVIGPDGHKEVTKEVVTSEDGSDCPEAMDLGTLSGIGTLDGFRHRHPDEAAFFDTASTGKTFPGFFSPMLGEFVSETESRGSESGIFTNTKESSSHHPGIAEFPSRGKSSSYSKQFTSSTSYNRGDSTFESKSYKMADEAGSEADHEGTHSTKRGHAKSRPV
T1 sequence (P02675 31-491): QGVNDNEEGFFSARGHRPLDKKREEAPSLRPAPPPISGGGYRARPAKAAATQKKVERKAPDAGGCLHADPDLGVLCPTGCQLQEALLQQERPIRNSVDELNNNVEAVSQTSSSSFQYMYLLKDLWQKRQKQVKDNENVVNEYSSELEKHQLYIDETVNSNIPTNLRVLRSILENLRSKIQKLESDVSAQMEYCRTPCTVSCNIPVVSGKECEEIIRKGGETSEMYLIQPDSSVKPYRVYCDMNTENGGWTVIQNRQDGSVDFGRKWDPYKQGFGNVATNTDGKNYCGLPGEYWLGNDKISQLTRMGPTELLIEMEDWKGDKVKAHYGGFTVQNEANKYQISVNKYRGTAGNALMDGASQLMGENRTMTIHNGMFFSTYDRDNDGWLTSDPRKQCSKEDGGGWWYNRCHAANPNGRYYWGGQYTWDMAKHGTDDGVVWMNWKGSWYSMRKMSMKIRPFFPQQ
T1 sequence (P02679 27-433 limits assumed): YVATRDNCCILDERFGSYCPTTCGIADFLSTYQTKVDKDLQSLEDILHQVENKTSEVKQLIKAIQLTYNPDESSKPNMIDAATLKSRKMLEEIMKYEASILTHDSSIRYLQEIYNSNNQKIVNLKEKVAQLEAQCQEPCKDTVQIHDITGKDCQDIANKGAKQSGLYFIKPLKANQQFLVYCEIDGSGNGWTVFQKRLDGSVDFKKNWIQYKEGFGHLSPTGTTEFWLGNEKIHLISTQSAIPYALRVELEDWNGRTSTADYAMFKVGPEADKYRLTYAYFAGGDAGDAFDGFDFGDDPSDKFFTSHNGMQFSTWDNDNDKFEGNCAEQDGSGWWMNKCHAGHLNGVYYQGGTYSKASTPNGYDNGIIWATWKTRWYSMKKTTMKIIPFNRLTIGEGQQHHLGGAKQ
Protocol: (§1) A polystyrene 96-well plate (Nunc® Maxisorp EUSA-plates) was coated with 1 mg/ml fibrinogen (Tisseel®, Baxter AG, Vienna) overnight at 4° C. and then blocked with blocking solution (PBS+1% BSA) for 2 hours at room temperature CRT). After washing three times with PBS, purified peptides were added in various dilutions to the plate and incubated for 1 hour at RT. After the three times washing with PBS, a monoclonal anti-His6-peroxidase antibody (Sigma-Aldrich, Vienna), diluted in PBS+0.1% Tween (Sigma-Aldrich, Vienna) was added and incubated for 1 hour at RT. Finally, the plate was washed three times with PBS again and wells were incubated with o-phenylenediaminehydrochlorid substrate. Absorbance was measured at 492 nm and 620 nm. For fibrin binding analysis, the plate was first coated with fibrinogen overnight at 4° C. and then incubated with 10 I.U./ml thrombin (Tisseel, Baxter AG, Vienna) for 30 minutes at 37° C. The following procedure was the same as described above. For the surface plasmon resonance (SPR) method fibrinogen was coupled to a gold sensor chip (10% COOH—(PEG)6-C11—SH, 90% OH(PEG)3-C11—SH; Reichert Analytical, NY, USA) by amine chemistry using EDC (1-ethyl-3-[3-dimethylaminopropyl]carbodiimide hydrochloride) and NHS (N-hydroxysuccinimide) (Pierce, Ill., USA). Uncoupled sites on the gold sensor chip were blocked with 1 M ethanolamine pH 8.5 (Sigma-Aldrich, MO, USA). The purified recombinant proteins and peptides were passed over the chip's surface at a flow rate of 0.4 ml/min to 0.8 ml/min and allowed to interact. The signals were detected and recorded at the Reichert SR7000 Surface Plasmon Resonance Analytical Instrument (Reichert Analytical, NY, USA). After each measurement the sensor chip surface was regenerated by a pulse with 100 mM phosphoric acid (Mallinckrodt Chemicals, NJ, USA) after each application of the samples. Association and dissociation signals were fitted to one association curve using a prism software calculation program.
Purified, proteins and peptides in different concentrations were used for testing the binding affinity to fibrinogen and fibrin (FIG. 5).

[3] = biological target: T1, fibrinogen; assay: Surface plasmon resonance (SPR) binding to fibrinogen coupled to gold sensor chip; settings: for binding signal (SPR): fibrinogen on sensor chip, fitted association curves
Protocol: as §1

| Sequence | activity retained relative to the full length protein ([1]; relative to full length hFGF-2) | binding affinity to fibrinogen [2] | binding signal (SPR) [3] | proliferative activity / cell growth effect [1] | binding affinity to fibrinogen ([2]; listed as Pep5) | binding characteristics to fibrinogen (SPR) ([3]; compared to full-length recombinant hFGF-2) |
| --- | --- | --- | --- | --- | --- | --- |
| EDGRLLASKCVTDECFFFERLESNNYNTYRSRHHHHH (EDGRLLASKCVTDECFFFERLESNNYNTYRSRHHHHH; synthetic peptide pep 3 (37 aa), peptide #3, pep3 with C-terminus 5x HIS-tag) [also expressed recombinantly] | approximately 50% | high affinity | weak and short binding signals |  |  |  |
| FERLESNNYN TYRSRHHHHH (FERLESNNYNTYRSRHHHHH; synthetic peptide pep 5 (20 aa), peptide #5, pep5 with C-terminus 5x HIS-tag) |  | nearly no binding affinity | weak and short binding signals | did not stimulate C2C12 cell growth; also recorded: little biological activity | little binding affinity |  |
| KCVTDECFFFERLESNNYNTYRSRHHHHH (KCVTDECFFFERLESNNYNTYRSRHHHHH; synthetic peptide pep 4 (29 aa), peptide #4, pep4 with C-terminus 5x HIS-tag) |  | significantly lower binding | significantly lower compared to hFGF-2 but more consistently over a longer period of 300 seconds; also recorded: lower binding signals than that of hFGF-2 | less activity, but similar to full length hFGF-2 |  | confirmed the binding affinity to fibrinogen |
